Test results published in patent publication US20240417462A1 (SHANGHAI CELGEN BIO PHARMACEUTICAL, published 2024).
Where “and” joins values, the source holds several entries; their conditions need not be identical. Equal values may be shown once. Read-outs that look alike come from different tables or passages of the source.

T1: recombinant human TIGIT (Human TIGIT His, Sino Biological, 10917-H08H) (human, UniProt Q495A1 22-138)
T1 construct: range 1-138; bought; also called hTIGIT
T1 sequence (looked up): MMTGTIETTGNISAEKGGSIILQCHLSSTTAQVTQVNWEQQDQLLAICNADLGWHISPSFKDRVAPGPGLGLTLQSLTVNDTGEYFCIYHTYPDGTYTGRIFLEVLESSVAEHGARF

T2: full-length human TIGIT expressed on CHO-K cell membrane (CHO-K-TIGIT) (human, UniProt Q495A1 22-244)
T2 construct: whole, on cells; also called CHO-TIGIT; membrane TIGIT
T2 sequence (looked up): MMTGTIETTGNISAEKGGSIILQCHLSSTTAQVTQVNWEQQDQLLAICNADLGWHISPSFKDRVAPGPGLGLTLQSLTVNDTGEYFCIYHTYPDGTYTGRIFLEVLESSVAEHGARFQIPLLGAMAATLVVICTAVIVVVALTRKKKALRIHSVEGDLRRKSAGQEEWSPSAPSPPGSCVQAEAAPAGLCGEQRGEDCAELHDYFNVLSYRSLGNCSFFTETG

T3: mouse TIGIT antigen (mouse, UniProt P86176 29-148, limits assumed)
T3 construct: construct not described; also called murine TIGIT
T3 sequence (looked up): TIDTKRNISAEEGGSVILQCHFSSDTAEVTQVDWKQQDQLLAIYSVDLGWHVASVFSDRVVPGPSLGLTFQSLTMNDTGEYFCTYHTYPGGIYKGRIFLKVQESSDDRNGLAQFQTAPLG


Columns and labels:
[1] = target: T1, recombinant human TIGIT (Human TIGIT …); assay: BLI, antibody captured on anti-human Fc probe, TIGIT-His in solution
[2] = target: T1, recombinant human TIGIT (Human TIGIT …); assay: ELISA, coated human TIGIT-His
[3] = target: T1, recombinant human TIGIT (Human TIGIT …); assay: ELISA, recombinant human TIGIT (His) coated, anti-human-Fc-AP, OD405/490
Procedure: (§1) Antigen hTIGIT (Human TIGIT (His), Sino Biological, 10917-H08H) was diluted into 1 μg/mL with a NaHCO₃ solution of pH 9.6, 50 μl per well was added to a 96-well ELISA plate, and placed overnight in refrigerator at 4° C.
(§2) In order to determine whether the humanized TIGIT monoclonal antibody of the present disclosure could bind to the recombinant human TIGIT protein, in vitro testing was performed. Murine antibodies and Tiragolumab (Tira) were used as positive controls. The experimental method was the same as in Example 3.1.

[4] = target: T2, full-length human TIGIT expressed on …; assay: flow cytometry, CHO-TIGIT cells
[5] = target: T1, recombinant human TIGIT (Human TIGIT …); assay: competition ELISA, human TIGIT (His) coated, antibody titrated against fixed CD155, bound CD155 detected, OD450/655
[6] = target: T1, recombinant human TIGIT (Human TIGIT …); assay: competition ELISA on recombinant human TIGIT, CD155 as competitor
[7] = target: T1, recombinant human TIGIT (Human TIGIT …); assay: BLI, antibody captured on anti-human Fc probe, TIGIT-His in solution; remark: listed apart in the source
[8] = target: T1, recombinant human TIGIT (Human TIGIT …); assay: ELISA, recombinant human TIGIT (His) coated, anti-human-Fc-AP, OD405/490; remark: listed apart in the source
Procedure: as §1, §2

mouse TIGIT antigen = target: T3, mouse TIGIT antigen; assay: ELISA, coated mouse TIGIT
Procedure: (§3) The cynomolgus monkey or mouse TIGIT antigen of was coated with the same method as above, the anti-human TIGIT mouse monoclonal antibody was diluted in gradient, and then the anti-mouse Fab secondary antibody was added (Jackson Immuno Research, 515-035-072) for TMB development. ELISA was used to detect the binding of 8 mouse monoclonal antibodies to recombinant cynomolgus monkey TIGIT.

[9] = target: T1, recombinant human TIGIT (Human TIGIT …); assay: competition ELISA, coated TIGIT-His, CD155-Fc as competitor
Procedure: In order to evaluate the competition between the anti-human TIGIT mouse monoclonal antibody and CD155 (Human CD155 (Fc Tag): Sino Biological, 10109-H02H) for binding to recombinant human TIGIT (Human TIGIT(His), Sino Biological, 10917-H08H), ELISA detection was performed, and the specific steps were as follows:
Primary antibody incubation: the plate was washed twice with PBS (250 μl/well), and patched dry. 6 μg/ml of CD155 was respectively diluted in a binding solution and added into a 96-well dilution plate at 60 μl/well. Then the screened hybridoma antibody was diluted with the binding solution, (the highest concentration was 30 μg/ml), and diluted to 3 times of concentration, and added into the corresponding dilution plate above at 60 μl/well. After mixing well, the sample was added to the coated 96-well ELISA plate at 100 μl/well. The plate was sealed with a sealing film and placed at 37° C. for 1.5 hours.
Secondary antibody incubation: the blocking solution was discarded, the plate was washed with 250 μl PBST for 3 times, and patched dry.

[10] = target: T4, recombinant cynomolgus monkey TIGIT (cynomolgus monkey, UniProt A0A7N9I9V4 89-209); assay: ELISA, recombinant cynomolgus TIGIT coated, anti-mouse Fab secondary antibody, TMB, OD450/655nm
T4 construct: construct not described; also called cynomolgus TIGIT
T4 sequence (A0A7N9I9V4 entry or part of it): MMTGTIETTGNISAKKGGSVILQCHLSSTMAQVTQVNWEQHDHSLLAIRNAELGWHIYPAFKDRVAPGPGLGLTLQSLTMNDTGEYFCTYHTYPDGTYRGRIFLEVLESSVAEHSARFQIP
Procedure: as §3

Kd [1] [nM]	koff [1] [s⁻¹]	kon [1] [M⁻¹ s⁻¹]	EC50 [2] [nM]	EC50 [3] [µg/mL]	further results	Binder
1.43	0.000804	562000	0.532	0.0794	–	humanized anti-human TIGIT monoclonal antibody P03487 (antibody, V domains shown) VH: QVQLVQSGAEVKKPGASVKVSCKASGYTFISYNIYWVRQAPGQGLEWIGGVNPSNGNTNFNENFKSRVTLTVDKSISTAYMELSRLRSDDTAVYYCTRGNYYGYEFAYWGQGTTVTVSS VL: DIQMTQSPSSMSASVGDRVTITCKASQHVSTAVAWYQQKPGKAPKLLIYSPSYRYTGVPSRFSGSGSGTDFTFTISSVQPEDIATYYCQQHYSTPWTFGGGTKLEIK
1.14	0.000584	511000	0.511	0.0763	–	humanized anti-human TIGIT monoclonal antibody P03486 (antibody, V domains shown) VH: QVQLVQSGAEVKKPGASVKLSCKASGYTFISYNIYWVRQAPGQGLEWIGGVNPSNGNTNFNENFKSRATLTVDKSSSTAYMELSRLRSDDTAVYFCTRGNYYGYEFAYWGQGTTVTVSS VL: DIQMTQSPSSMSASVGDRVTITCKASQHVSTAVAWYQQKPGKAPKLLIYSPSYRYTGVPSRFSGSGSGTDFTFTISSVQPEDIATYYCQQHYSTPWTFGGGTKLEIK
1.27	0.000664	522000	0.501	0.0749	–	humanized anti-human TIGIT monoclonal antibody P03490 (antibody, V domains shown) VH: QVQLVQSGAEVKKPGASVKLSCKASGYTFISYNIYWVRQAPGQGLEWIGGVNPSNGNTNFNENFKSRATLTVDKSSSTAYMELSRLRSDDTAVYFCTRGNYYGYEFAYWGQGTTVTVSS VL: DIQMTQSPSSLSASVGDRVTITCKASQHVSTAVAWYQQKPGKAPKLLIYSPSYRYTGVPSRFSGSGSGTDFTFTISSLQPEDIATYYCQQHYSTPWTFGGGTKLEIK
1.88	0.00095	506000	0.471	0.0702	–	humanized anti-human TIGIT monoclonal antibody P03491 (antibody, V domains shown) VH: QVQLVQSGAEVKKPGASVKVSCKASGYTFISYNIYWVRQAPGQGLEWIGGVNPSNGNTNFNENFKSRVTLTVDKSISTAYMELSRLRSDDTAVYYCTRGNYYGYEFAYWGQGTTVTVSS VL: DIQMTQSPSSLSASVGDRVTITCKASQHVSTAVAWYQQKPGKAPKLLIYSPSYRYTGVPSRFSGSGSGTDFTFTISSLQPEDIATYYCQQHYSTPWTFGGGTKLEIK
1.49	0.000781	525000	0.463	0.0692	EC50 [4]: 0.437 nM	humanized anti-human TIGIT monoclonal antibody P03492 (antibody, V domains shown) VH: QVQLVQSGAEVKKPGASVKVSCKASGYTFISYNIYWVRQAPGQGLEWIGGVNPSNGNTNFNENFKGRVTLTVDTSISTAYMELSRLRSDDTAVYYCTRGNYYGYEFAYWGQGTTVTVSS VL: DIQMTQSPSSLSASVGDRVTITCKASQHVSTAVAWYQQKPGKAPKLLIYSPSYRYTGVPSRFSGSGSGTDFTFTISSLQPEDIATYYCQQHYSTPWTFGGGTKLEIK
1.12	0.000513	458000	0.444	0.0662	EC50 [4]: 0.557 nM	humanized anti-human TIGIT monoclonal antibody P03493 (antibody, V domains shown) VH: QVQLVQSGAEVKKPGASVKVSCKASGYTFISYNIYWVRQAPGQGLEWMGGVNPSNGNTNFNENFQGRVTMTVDTSISTAYMELSRLRSDDTAVYYCTRGNYYGYEFAYWGQGTTVTVSS VL: DIQMTQSPSSLSASVGDRVTITCKASQHVSTAVAWYQQKPGKAPKLLIYSPSYRYTGVPSRFSGSGSGTDFTFTISSLQPEDIATYYCQQHYSTPWTFGGGTKLEIK
–	–	–	0.0858	–	EC50 [4]: 0.963 nM; IC50 [5]: 0.109 µg/mL and 0.728 nM; IC50 [6]: 0.714 nM; Kd [7]: 8.43 nM; koff [7]: 0.00495 s⁻¹; kon [7]: 587000 M⁻¹ s⁻¹	humanized anti-human TIGIT monoclonal antibody P03479 (antibody, V domains shown) VH: EVQVVESGGGLVKPGGSLRLSCAASGFTFSTYAMSWVRQAPGKGLEWVAEISSGGSHTFYADTVKGRFTISRDNAKNTLYLQMNSLRAEDTAVYYCARKTLDYYALDYWGQGTTVTVSS VL: DVQITQSPSYLSASVGDRVTINCRASKSISKYLAWYQQKPGKAPKLLIYSGSRLQSGIPSRFSGSGYGTDFTLTISSLQPEDFATYYCQQHNEYPWTFGGGTKLEIK
–	–	–	–	–	EC50 [8]: 0.0136 µg/mL and 0.0913 nM; Kd [7]: 5.58 nM; koff [7]: 0.00583 s⁻¹; kon [7]: 1.04e+06 M⁻¹ s⁻¹	humanized anti-human TIGIT monoclonal antibody P04665 (antibody, V domains shown) VH: EVQVVESGGGLVKPGGSLRLSCAASGFTFSTYAMSWVRQAPEQRLEWVAEISSGGSHTFYSDTVTGRFTISRDNAKNTLYLQMNSLRAEDTAVYYCARKTLDYYALDYWGQGTTVTVSS VL: DIQMTQSPSSVSASVGETITITCRASKSISKYLAWYQQKPGKAPKLLIYSGSRLQSGVPSRFSGSGSGTDFTLTISSLQPEDFATYYCQQHNEYPWTFGGGTKLEIK
–	–	–	0.0987	–	binding result (mouse TIGIT antigen): no binding; IC50 [9]: 0.13 nM; binding result [10]: no binding	anti-human TIGIT mouse monoclonal antibody 7103-02 (antibody, V domains shown, also called 37C6-1-1) VH: EVQLQQSGPELVKPGASVKMSCKASGYTITSYVMHWVKQKPGQGLEWIGYINPYNDGTKYNEKFKGKATLTSDKSSSTAYMELSSLTSEDSAVYYCARWNPYYYAMDYWGQGTSVTVSS VL: EVVLTQSPAITAASLGQKVTITCSANSSARYVHWYQQKSGTSPKPWIYEISKLASGVPARFSGSGSGTSYSLTISSMGAEDAAIYYCQQWNYPLITFGAGTKLEIK
–	–	–	0.0571	–	binding result (mouse TIGIT antigen): no binding; IC50 [9]: 0.169 nM; binding result [10]: no binding	anti-human TIGIT mouse monoclonal antibody 7103-05 (antibody, V domains shown, also called 41D7-2-1) VH: EVQLQQSGPALVKPGASVKISCKTSEYTFTEYTMYWVKQSHGKSLEWIGGINPNNGGTRYNQKFKGKATLTVDKSSSTAYMELRSLTSEDSAVYYCARGGHYDYGFAYWGQGTLVTVSA VL: DIVMTQSHKFMSTSVGDRVSITCKASQDVKTAVAWYQQKPGQSPKVLIYSPSYRYTGVPDRFTGSGSGTDFTFTISSVQAEDLAVYYCQQHYSTPWTFGGGTKLKSK
–	–	–	0.0372	–	binding result (mouse TIGIT antigen): no binding; IC50 [9]: 0.0857 nM; binding result [10]: no binding	anti-human TIGIT mouse monoclonal antibody 7103-08 (antibody, V domains shown, also called 49F8-1-2) VH: EVQLQESGPELVKPGASVKISCKASGYSFTGYYMLWVKQSHVKSLEWIGRINPYNGATTYNQNFKDKASLTVNKSSSTAYMELHSLTSEDSAVYYCARWFGDFDFWGQGTTLTVSS VL: DIQMTQSPSSLSASLGERVSLTCRASQEISGYLSWLQQKPDGTIKRLIYATSTLDSGVPKRFSGSRSGSDYSLTISSLESEDFADYYCLQYASYPFTFGSGTKLEIK
